# Paper PMC10267678 (2023)
# B1: NJT3 (VHH)
# VHH: QVQLVETGGGLAQAGGSLRLSCAASGRTLSGYAMGWFRQAPGKEREFVAAISWSGRNTYYDYTVQGRFTISKDNAKNTVNLQMNSLKPEDTAVYYCAVSRSLDEFGDGYEMDYWGDGTQVTVSS
# modifications: biotin (BLI, IHC) or Alexa-647 (two-photon imaging) added at the C-terminus by sortase-mediated tagging
# B2: NJT6 (VHH)
# VHH: QVQLVETGGDLVQPGGSLRLSCAASGLTLDYYAIGWVRQAPGKEREGVSCITPQDGNTYYDDSVMGRFTILRDNAKNMVYLQMNNLKPEDTAVYFCAAAGALTLDPSEYEYWGQGTQVTVSS
# modifications: biotin (BLI, IHC) or Alexa-647 (two-photon imaging) added at the C-terminus by sortase-mediated tagging
# B3: NJT4 (VHH)
# VHH: QVQLVESGGGLVQPGGSLRLSCAASGFTFSSYTMRWYRQAPGKERELVAFIGVAGGSTKYADSVKGRFTISRDNTKNTVYLQMNTLKPEDTAVYYCYAPLTPYWGQGTQVTVSS
# modifications: biotin (BLI, IHC) or Alexa-647 (two-photon imaging) added at the C-terminus by sortase-mediated tagging
# Tests used:
# [1] = biological target: T1, full-length human TNC protein (human, UniProt P24821 23-2201); experiment: BLI
# T1 sequence (P24821 23-2201): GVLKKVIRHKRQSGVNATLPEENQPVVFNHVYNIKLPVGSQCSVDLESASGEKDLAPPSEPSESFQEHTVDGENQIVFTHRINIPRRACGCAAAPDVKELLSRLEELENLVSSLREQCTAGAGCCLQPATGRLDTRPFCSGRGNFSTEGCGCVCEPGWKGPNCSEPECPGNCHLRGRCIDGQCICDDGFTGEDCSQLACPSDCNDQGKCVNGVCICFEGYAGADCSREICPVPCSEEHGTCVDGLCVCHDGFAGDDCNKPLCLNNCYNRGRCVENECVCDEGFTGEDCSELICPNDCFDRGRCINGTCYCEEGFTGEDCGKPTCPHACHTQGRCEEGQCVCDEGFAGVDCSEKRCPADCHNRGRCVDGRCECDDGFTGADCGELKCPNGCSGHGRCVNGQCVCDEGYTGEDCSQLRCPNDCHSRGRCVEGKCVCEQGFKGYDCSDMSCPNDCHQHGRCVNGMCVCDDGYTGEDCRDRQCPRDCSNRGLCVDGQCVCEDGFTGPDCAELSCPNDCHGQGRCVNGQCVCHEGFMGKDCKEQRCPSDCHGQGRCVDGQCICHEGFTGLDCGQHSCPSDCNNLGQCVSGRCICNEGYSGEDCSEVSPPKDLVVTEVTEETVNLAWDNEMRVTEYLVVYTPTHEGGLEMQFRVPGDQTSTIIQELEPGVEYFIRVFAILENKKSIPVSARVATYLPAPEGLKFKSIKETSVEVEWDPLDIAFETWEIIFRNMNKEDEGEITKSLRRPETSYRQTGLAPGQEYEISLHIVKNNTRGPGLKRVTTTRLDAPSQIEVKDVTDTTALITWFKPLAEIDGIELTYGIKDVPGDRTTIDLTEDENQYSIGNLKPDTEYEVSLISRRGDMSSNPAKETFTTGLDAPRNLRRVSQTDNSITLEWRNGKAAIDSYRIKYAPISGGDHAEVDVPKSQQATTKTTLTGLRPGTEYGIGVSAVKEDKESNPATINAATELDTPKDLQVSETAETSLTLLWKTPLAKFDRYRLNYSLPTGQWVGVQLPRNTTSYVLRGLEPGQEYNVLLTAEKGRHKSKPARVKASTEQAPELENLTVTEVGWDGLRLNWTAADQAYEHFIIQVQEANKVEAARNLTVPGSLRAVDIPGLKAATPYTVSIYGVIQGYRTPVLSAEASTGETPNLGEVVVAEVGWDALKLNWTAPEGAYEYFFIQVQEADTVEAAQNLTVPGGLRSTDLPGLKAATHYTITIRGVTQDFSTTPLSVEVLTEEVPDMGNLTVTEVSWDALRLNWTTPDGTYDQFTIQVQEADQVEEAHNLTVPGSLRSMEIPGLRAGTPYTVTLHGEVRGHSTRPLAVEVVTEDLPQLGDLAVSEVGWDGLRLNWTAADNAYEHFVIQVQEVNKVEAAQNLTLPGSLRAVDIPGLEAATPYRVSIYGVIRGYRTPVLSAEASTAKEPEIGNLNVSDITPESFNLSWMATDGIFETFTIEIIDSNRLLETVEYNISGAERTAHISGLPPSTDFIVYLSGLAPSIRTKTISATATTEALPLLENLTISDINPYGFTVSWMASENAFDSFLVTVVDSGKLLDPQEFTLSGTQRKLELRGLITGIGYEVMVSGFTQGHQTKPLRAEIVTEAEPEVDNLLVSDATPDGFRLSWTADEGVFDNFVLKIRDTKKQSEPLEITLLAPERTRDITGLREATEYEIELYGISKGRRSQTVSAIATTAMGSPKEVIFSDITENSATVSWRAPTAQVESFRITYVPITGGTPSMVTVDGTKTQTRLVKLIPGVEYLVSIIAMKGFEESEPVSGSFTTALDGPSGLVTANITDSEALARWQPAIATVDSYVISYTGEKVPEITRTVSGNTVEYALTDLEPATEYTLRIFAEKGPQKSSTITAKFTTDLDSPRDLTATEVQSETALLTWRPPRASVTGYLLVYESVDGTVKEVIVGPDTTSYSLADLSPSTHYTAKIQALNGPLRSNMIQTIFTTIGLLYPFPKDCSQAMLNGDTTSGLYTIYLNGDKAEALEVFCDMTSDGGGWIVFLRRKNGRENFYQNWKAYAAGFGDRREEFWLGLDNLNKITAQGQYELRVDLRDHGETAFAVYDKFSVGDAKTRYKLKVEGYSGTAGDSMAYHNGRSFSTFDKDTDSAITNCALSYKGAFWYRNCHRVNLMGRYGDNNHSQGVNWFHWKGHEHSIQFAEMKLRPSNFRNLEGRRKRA
# [2] = biological target: T1, full-length human TNC protein; experiment: BLI; remark: listed apart in the source
Binder,Kd [1] [pM],koff [2] [s⁻¹]
B1,1.47,2.35e-07
B2,< 1,< 1e-07
B3,< 1,< 1e-07
